In this assay the target is GFP-TIpA fusion protein (Salmonella typhimurium) [GFP: P42212]. Briefly: cell-based or functional assay.

“GFP-TIpA fusion protein (from UniProt P42212 1-238)” came in with a fluorescent intensity when excited at 395 nm, temperature raised from 10° C. to 55° C. of 30%.
